Reference: US7244707

Target: cation-independent mannose-6-phosphate (CIM6P) receptor, human (human) (UniProt P11717)
Assay: cell-based or functional assay

Chain of UniProt P11717 (P11717 41-2491): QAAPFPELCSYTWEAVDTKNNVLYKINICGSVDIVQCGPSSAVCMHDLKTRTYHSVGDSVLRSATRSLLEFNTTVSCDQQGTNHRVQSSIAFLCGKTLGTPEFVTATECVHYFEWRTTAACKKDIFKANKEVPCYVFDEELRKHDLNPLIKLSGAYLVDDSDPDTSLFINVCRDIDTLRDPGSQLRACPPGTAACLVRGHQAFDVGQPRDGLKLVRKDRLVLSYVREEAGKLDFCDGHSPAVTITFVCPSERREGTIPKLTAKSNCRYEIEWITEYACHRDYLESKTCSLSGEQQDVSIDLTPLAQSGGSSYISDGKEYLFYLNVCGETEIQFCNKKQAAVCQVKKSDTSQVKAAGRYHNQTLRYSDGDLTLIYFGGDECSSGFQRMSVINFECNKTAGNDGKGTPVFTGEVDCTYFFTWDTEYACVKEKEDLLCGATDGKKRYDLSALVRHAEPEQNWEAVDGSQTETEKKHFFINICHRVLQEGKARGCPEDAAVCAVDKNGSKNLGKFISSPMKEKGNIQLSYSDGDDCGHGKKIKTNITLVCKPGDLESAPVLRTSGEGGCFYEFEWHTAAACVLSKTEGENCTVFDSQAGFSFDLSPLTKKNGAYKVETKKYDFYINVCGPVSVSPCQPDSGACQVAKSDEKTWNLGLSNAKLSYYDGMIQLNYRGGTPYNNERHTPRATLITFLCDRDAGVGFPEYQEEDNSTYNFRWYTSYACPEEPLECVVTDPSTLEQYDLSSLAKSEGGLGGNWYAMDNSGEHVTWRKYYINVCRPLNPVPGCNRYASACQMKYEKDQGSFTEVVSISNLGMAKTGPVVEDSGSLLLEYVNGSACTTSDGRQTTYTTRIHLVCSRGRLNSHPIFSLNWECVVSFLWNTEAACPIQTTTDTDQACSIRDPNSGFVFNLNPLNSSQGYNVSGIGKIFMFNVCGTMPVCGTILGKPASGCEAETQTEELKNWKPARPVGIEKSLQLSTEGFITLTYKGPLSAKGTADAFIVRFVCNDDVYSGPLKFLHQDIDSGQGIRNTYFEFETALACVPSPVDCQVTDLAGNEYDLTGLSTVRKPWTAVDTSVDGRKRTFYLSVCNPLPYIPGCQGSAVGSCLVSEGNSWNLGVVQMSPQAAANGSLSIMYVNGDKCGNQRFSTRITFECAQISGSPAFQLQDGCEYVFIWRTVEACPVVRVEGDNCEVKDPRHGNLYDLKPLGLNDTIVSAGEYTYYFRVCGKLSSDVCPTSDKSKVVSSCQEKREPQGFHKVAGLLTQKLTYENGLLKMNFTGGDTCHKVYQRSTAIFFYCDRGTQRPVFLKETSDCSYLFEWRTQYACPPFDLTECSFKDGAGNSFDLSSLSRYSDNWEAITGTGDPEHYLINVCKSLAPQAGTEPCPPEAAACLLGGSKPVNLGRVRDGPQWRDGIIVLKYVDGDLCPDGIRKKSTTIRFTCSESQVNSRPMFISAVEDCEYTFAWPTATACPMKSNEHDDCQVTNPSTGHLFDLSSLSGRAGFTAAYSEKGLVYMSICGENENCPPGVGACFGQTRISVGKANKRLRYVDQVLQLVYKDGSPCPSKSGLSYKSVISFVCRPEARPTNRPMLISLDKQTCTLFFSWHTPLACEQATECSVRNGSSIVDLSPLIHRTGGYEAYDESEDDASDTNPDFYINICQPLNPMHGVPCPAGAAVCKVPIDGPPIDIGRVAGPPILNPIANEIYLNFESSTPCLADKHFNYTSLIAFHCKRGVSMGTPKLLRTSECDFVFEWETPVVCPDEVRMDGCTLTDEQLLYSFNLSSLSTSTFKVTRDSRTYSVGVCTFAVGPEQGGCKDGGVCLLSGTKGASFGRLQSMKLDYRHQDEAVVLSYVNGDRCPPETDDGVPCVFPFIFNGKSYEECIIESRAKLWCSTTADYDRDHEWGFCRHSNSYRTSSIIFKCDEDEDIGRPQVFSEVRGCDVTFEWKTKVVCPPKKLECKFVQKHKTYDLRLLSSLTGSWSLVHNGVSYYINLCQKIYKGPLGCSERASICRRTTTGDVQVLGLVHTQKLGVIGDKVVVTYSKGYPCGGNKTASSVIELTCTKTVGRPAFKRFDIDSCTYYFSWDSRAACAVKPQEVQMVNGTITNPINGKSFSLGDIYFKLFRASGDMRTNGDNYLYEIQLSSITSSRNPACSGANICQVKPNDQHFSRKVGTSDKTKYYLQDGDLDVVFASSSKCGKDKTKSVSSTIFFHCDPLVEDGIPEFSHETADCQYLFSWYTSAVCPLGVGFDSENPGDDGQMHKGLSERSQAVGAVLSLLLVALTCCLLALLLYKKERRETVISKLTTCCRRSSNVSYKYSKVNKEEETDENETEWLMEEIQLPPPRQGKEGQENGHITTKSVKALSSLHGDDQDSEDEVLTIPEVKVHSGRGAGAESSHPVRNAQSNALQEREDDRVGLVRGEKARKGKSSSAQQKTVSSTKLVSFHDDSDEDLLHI

“Leu^27IGF-II (receptor grade) (from UniProt P01344 25-91) (ligand)” gave an Active TGF -1 as % Control (TF1 monocytes, TGF-1 ELISA), 25 nmol/L Leu^27-IGF-II of 12.7 % Control.
